Experimental data reported in the supplement of paper PMC10126150.
± gives the standard deviation of the averaged measurements.

Tested on: ATP
Assay: switch fluorescence ratio, 500 uM ATP over buffer (Cy3 cluster intensity, sum of 5 cycles each) (fold (ratio)); higher = stronger signal-on switching upon ATP binding; sequences stand for … in TCGTCGGCAGCGTCAGATGTGTATAAGAGACAGTTTTTTTTTTTTTTTTTTTTTTTTT…TC
Details: aptamer strand: ATP DNA aptamer (quencher-CACCTGGGGGAGTATTGCGGAGGAAGG + anchor), 100 nM annealed; ATP concentration: 500 uM
In short: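 Clusters carrying Cy3-labelled switching strands on a modified Illumina MiSeq flow-cell were annealed to 100 nM quencher-labelled ATP aptamer and imaged in selection buffer. They were imaged again after 15 min with 500 uM ATP at 22 °C, over five buffer/ATP cycles with NaOH stripping and re-annealing in between. For each cluster, the fluorescence ratio is the summed Cy3 intensity of the target cycles divided by that of the buffer cycles, averaged per switch-domain sequence. Clusters outside 100-1000 RFU were left out.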
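Note: ATP exposure 15 min at 22 °C before imaging.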

| Sequence | switch fluorescence ratio |
| --- | --- |
| CGTAGGGTGT | 1 ± 0.022 |
| CGTAGGGTTT | 0.976 ± 0.055 |
| CGTAGTGAGG | 0.994 ± 0.03 |
| CGTAGTGGGG | 0.993 ± 0.044 |
| CGTAGTTTGT | 1.03 ± 0.076 |
| CGTATAATTT | 0.97555 ± 0.00021 |
| CGTATAGCGG | 1.02 ± 0.076 |
| CGTATAGTTT | 0.9865 ± 0.0096 |
| CGTATCAAAC | 1.23 ± 0.049 |
| CGTATCGGGG | 0.993 ± 0.054 |
| CGTATCGTGG | 1.03 ± 0.031 |
| CGTATCTAGG | 0.98 ± 0.021 |
| CGTATCTATC | 1.007 ± 0.0065 |
| CGTATGAATA | 0.984 ± 0.011 |
| CGTATGGGGG | 1.07 ± 0.08 |
| CGTATGGTTC | 0.996 ± 0.031 |
| CGTATTACAC | 1.045 ± 0.0033 |
| CGTATTGGGC | 0.9577 ± 0.0065 |
| CGTCAAACAT | 1.081 ± 0.0084 |
| CGTCAAATAT | 1.13 ± 0.041 |
| CGTCAACAGG | 1.28 ± 0.062 |
| CGTCACAGTG | 1.04 ± 0.019 |
| CGTCAGCGAA | 1.18 ± 0.039 |

| Sequence | switch fluorescence ratio |
| --- | --- |
| CGTCAGTATG | 1 ± 0.033 |
| CGTCATCGCA | 1.2 ± 0.022 |
| CGTCATGATG | 1 ± 0.029 |
| CGTCATTAAG | 0.9994 ± 0.0054 |
| CGTCCCTAGC | 1.61 ± 0.06 |
| CGTCCGAAGT | 2.03 ± 0.18 |
| CGTCCGGTG | 1.78 ± 0.65 |
| CGTCGAATAT | 1.016 ± 0.0016 |
| CGTCGGAATG | 1.091 ± 0.0045 |
| CGTCGGGGAA | 1.02 ± 0.027 |
| CGTCGGGGTT | 0.973 ± 0.032 |
| CGTCGGTTTG | 0.993 ± 0.019 |
| CGTCGTGGAG | 1.01 ± 0.036 |
| CGTCTAAGGT | 0.98 ± 0.044 |
| CGTCTAGACT | 1.018 ± 0.0036 |
| CGTCTATTGT | 0.98 ± 0.046 |
| CGTCTGGTGG | 0.991 ± 0.05 |
| CGTCTTACGT | 1.03 ± 0.051 |
| CGTCTTGTGG | 1 ± 0.022 |
| CGTGACAAGA | 0.986 ± 0.056 |
| CGTGACAGGG | 1.04 ± 0.058 |
| CGTGACCGGG | 0.996 ± 0.016 |
| CGTGACTAAA | 0.9893 ± 0.0079 |

| Sequence | switch fluorescence ratio |
| --- | --- |
| CGTGAGAAAG | 1 ± 0.018 |
| CGTGAGATGC | 1.01 ± 0.038 |
| CGTGAGGGAG | 0.994 ± 0.029 |
| CGTGAGGGTA | 1.02 ± 0.028 |
| CGTGAGGGTG | 1.01 ± 0.079 |
| CGTGATATAG | 1.02 ± 0.026 |
| CGTGCAAAAC | 1.82 ± 0.88 |
| CGTGCAAAGA | 1.77 ± 1.1 |
| CGTGCGAAGG | 1.03 ± 0.049 |
| CGTGCGGCTG | 1.028 ± 0.0066 |
| CGTGCTGCAA | 4.91 ± 1.7 |
| CGTGCTGGAA | 0.975 ± 0.045 |
| CGTGGAAGGA | 0.997 ± 0.038 |
| CGTGGCCGCG | 0.959 ± 0.012 |
| CGTGGCGGTA | 1.04 ± 0.031 |
| CGTGGGACTG | 1.02 ± 0.017 |
| CGTGGGAGGT | 0.987 ± 0.036 |
| CGTGGGCAAG | 0.996 ± 0.021 |
| CGTGGGCAGT | 0.956 ± 0.041 |
| CGTGGGCATT | 1.01 ± 0.034 |
| CGTGGGCTGT | 0.9817 ± 0.0074 |
| CGTGGGGAGT | 1 ± 0.012 |
| CGTGGGGGCG | 1.01 ± 0.03 |

| Sequence | switch fluorescence ratio |
| --- | --- |
| CGTGGGGGGA | 1.03 ± 0.013 |
| CGTGGGGGGG | 1.02 ± 0.052 |
| CGTGGGTAAG | 1.02 ± 0.039 |
| CGTGGGTGGG | 1.01 ± 0.036 |
| CGTGGGTTCC | 0.989 ± 0.038 |
| CGTGGTATTT | 0.982 ± 0.016 |
| CGTGGTGCTC | 1.07 ± 0.043 |
| CGTGGTTGCA | 0.989 ± 0.018 |
| CGTGGTTGCG | 0.962 ± 0.055 |
| CGTGTAGTTG | 1.02 ± 0.026 |
| CGTGTATATC | 1.07 ± 0.028 |
| CGTGTCATTA | 1.01 ± 0.031 |
| CGTGTCCTCG | 1.04 ± 0.088 |
| CGTGTGATTT | 0.988 ± 0.025 |
| CGTGTGGTAT | 1.01 ± 0.042 |
| CGTGTGGTCG | 0.9325 ± 0.0038 |
| CGTGTTAATG | 0.989 ± 0.037 |
| CGTGTTACGG | 0.994 ± 0.046 |
| CGTGTTCGGA | 0.977 ± 0.016 |
| CGTGTTGTTT | 1.003 ± 0.01 |
| CGTGTTTATA | 0.99 ± 0.042 |
| CGTGTTTGGG | 0.994 ± 0.022 |
| CGTGTTTTAT | 0.998 ± 0.039 |

| Sequence | switch fluorescence ratio |
| --- | --- |
| CGTTAAATAA | 1.004 ± 0.0054 |
| CGTTAAATTT | 0.994 ± 0.033 |
| CGTTAAGAAA | 0.994 ± 0.016 |
| CGTTAAGTTT | 0.9804 ± 0.0066 |
| CGTTAATACT | 2.98 ± 0.045 |
| CGTTAATCGT | 1.01 ± 0.021 |
| CGTTAATCTA | 0.987 ± 0.026 |
| CGTTACCGGA | 1.01 ± 0.029 |
| CGTTACGCGC | 1 ± 0.023 |
| CGTTACGCTT | 1.05 ± 0.066 |
| CGTTACGGGA | 1.02 ± 0.057 |
| CGTTAGAATA | 1.017 ± 0.0078 |
| CGTTAGCTTT | 1.02 ± 0.026 |
| CGTTAGTTCT | 1 ± 0.029 |
| CGTTATCTAG | 1.01 ± 0.03 |
| CGTTATTTTT | 1.016 ± 0.0089 |
| CGTTCAATTA | 0.996 ± 0.027 |
| CGTTCGATAT | 1.03 ± 0.03 |
| CGTTCGGGTT | 0.989 ± 0.044 |
| CGTTCTAATT | 1.01 ± 0.024 |
| CGTTCTGAAT | 0.9901 ± 0.0086 |
| CGTTCTTGTC | 1.05 ± 0.047 |
| CGTTGATGTC | 1.01 ± 0.13 |

| Sequence | switch fluorescence ratio |
| --- | --- |
| CGTTGATTTG | 0.9908 ± 0.0057 |
| CGTTGCGAAA | 1.02 ± 0.031 |
| CGTTGCGCCA | 1.02 ± 0.013 |
| CGTTGCTCGA | 0.9992 ± 0.0064 |
| CGTTGGAAGA | 1.02 ± 0.015 |
| CGTTGGATT | 0.986 ± 0.017 |
| CGTTGGCAGC | 1.03 ± 0.028 |
| CGTTGGGGGC | 0.998 ± 0.087 |
| CGTTGGGTTG | 0.987 ± 0.024 |
| CGTTGGTGTC | 0.9921 ± 0.0085 |
| CGTTGGTTCA | 1 ± 0.023 |
| CGTTGGTTTT | 1.04 ± 0.02 |
| CGTTGTGACT | 0.998 ± 0.021 |
| CGTTGTTTCT | 0.967 ± 0.024 |
| CGTTTAATAT | 1 ± 0.033 |
| CGTTTACGGA | 0.998 ± 0.026 |
| CGTTTAGGAC | 1.1 ± 0.21 |
| CGTTTAGGCT | 1.07 ± 0.14 |
| CGTTTAGGGG | 0.9766 ± 0.0063 |
| CGTTTAGGTG | 1.02 ± 0.038 |
| CGTTTCAAGA | 0.9759 ± 0.0019 |
| CGTTTCGTTT | 0.98 ± 0.039 |
| CGTTTGAACT | 1.025 ± 0.0094 |

| Sequence | switch fluorescence ratio |
| --- | --- |
| CGTTTGATGG | 0.9807 ± 0.0047 |
| CGTTTGGGCC | 1.01 ± 0.069 |
| CGTTTTATCT | 1.03 ± 0.025 |
| CGTTTTCAGA | 0.9966 ± 0.0015 |
| CGTTTTCTCG | 0.994 ± 0.027 |
| CGTTTTTAAG | 0.982 ± 0.0052 |
| CGTTTTTAGG | 1.02 ± 0.024 |
| CGTTTTTCGG | 0.971 ± 0.0087 |
| CGTTTTTGGG | 0.985 ± 0.036 |
| CGTTTTTTTG | 1.014 ± 0.0018 |
| CGTTTTTTTT | 0.989 ± 0.02 |
| CTAAAGCGCG | 1.07 ± 0.034 |
| CTAAAGGTTC | 1.05 ± 0.05 |
| CTAAAGTGTG | 0.9858 ± 0.0098 |
| CTAAAGTTGG | 0.995 ± 0.02 |
| CTAAATAATA | 0.992 ± 0.027 |
| CTAACAGGGG | 1.426 ± 0.0043 |
| CTAACGGACT | 1.16 ± 0.068 |
| CTAAGAGGGA | 0.999 ± 0.025 |
